Patent US20250144205A1, “COMPOSITIONS AND METHODS FOR TREATING INFECTIOUS DISEASES” (priority 2022, published 2025)

B1: M9^FL: recombinant full length MEGF9 (multiple EGF-like-domains-9); full-length human MEGF9 is SEQ ID NO: 1 (protein, listed as Homo sapiens)
chain: MNGGAERAMRSLPSLGGLALLCCAAAAAAAAVASAASAGNVTGGGGAAGQVDASPGPGLRGEPSHPFPRATAPTAQAPRTGPPRATVHRPLAATSPAQSPETTPLWATAGPSSTTFQAPLGPSPTTPPAAERTSTTSQAPTRPAPTTLSTTTGPAPTTPVATTVPAPTTPRTPTPDLPSSSNSSVLPTPPATEAPSSPPPEYVCNCSVVGSLNVNRCNQTTGQCECRPGYQGLHCETCKEGFYLNYTSGLCQPCDCSPHGALSIPCNSSGKCQCKVGVIGSICDRCQDGYYGFSKNGCLPCQCNNRSASCDALTGACLNCQENSKGNHCEECKEGFYQSPDATKECLRCPCSAVTSTGSCSIKSSELEPECDQCKDGYIGPNCNKCENGYYNFDSICRKCQCHGHVDPVKTPKICKPESGECINCLHNTTGFWCENCLEGYVHDLEGNCIKKEVILPTPEGSTILVSNASLTTSVPTPVINSTFTPTTLQTIFSVSTSENSTSALADVSWTQFNIIILTVIIIVVVLLMGFVGAVYMYREYQNRKLNAPFWTIELKEDNISFSSYHDSIPNADVSGLLEDDGNEVAPNGQLTLTTPIHNYKA
B2: U5a^FL: Recombinant full-length U5a protein (uncoordinated receptor 5A); full-length human UNC5A is SEQ ID NO: 5 (protein, listed as Homo sapiens)
chain: MAVRPGLWPALLGIVLAAWLRGSGAQQSATVANPVPGANPDLLPHFLVEPEDVYIVKNKPVLLVCKAVPATQIFFKCNGEWVRQVDHVIERSTDGSSGLPTMEVRINVSRQQVEKVFGLEEYWCQCVAWSSSGTTKSQKAYIRIAYLRKNFEQEPLAKEVSLEQGIVLPCRPPEGIPPAEVEWLRNEDLVDPSLDPNVYITREHSLVVRQARLADTANYTCVAKNIVARRRSASAAVIVYVDGSWSPWSKWSACGLDCTHWRSRECSDPAPRNGGEECQGTDLDTRNCTSDLCVHTASGPEDVALYVGLIAVAVCLVLLLLVLILVYCRKKEGLDSDVADSSILTSGFQPVSIKPSKADNPHLLTIQPDLSTTTTTYQGSLCPRQDGPSPKFQLTNGHLLSPLGGGRHTLHHSSPTSEAEEFVSRLSTQNYFRSLPRGTSNMTYGTFNFLGGRLMIPNTGISLLIPPDAIPRGKIYEIYLTLHKPEDVRLPLAGCQTLLSPIVSCGPPGVLLTRPVILAMDHCGEPSPDSWSLRLKKQSCEGSWEDVLHLGEEAPSHLYYCQLEASACYVFTEQLGRFALVGEALSVAAAKRLKLLLFAPVACTSLEYNIRVYCLHDTHDALKEVVQLEKQLGGQLIQEPRVLHFKDSYHNLRLSIHDVPSSLWKSKLLVSYQEIPFYHIWNGTQRYLHCTFTLERVSPSTSDLACKLWVWQVEGDGQSFSINFNITKDTRFAELLALESEAGVPALVGPSAFKIPFLIRQKIISSLDPPCRRGADWRTLAQKLHLDSHLSFFASKPSPTAMILNLWEARHFPNGNLSQLAAAVAGLGQPDAGLFTVSEAEC
B3: M^9ECD: extracellular domain (ECD) fragment of recombinant M9 (MEGF9); ECD of MEGF9 given as SEQ ID NO: 102 (protein, listed as Homo sapiens)
chain: MGWSCIILFLVATATGVHSAAVASAASAGNVTGGGGAAGQVDASPGPGLRGEPSHPFPRATAPTAQAPRTGPPRATVHRPLAATSPAQSPETTPLWATAGPSSTTFQAPLGPSPTTPPAAERTSTTSQAPTRPAPTTLSTTTGPAPTTPVATTVPAPTTPRTPTPDLPSSSNSSVLPTPPATEAPSSPPPGHQWPVAKMPQKYLGKYACESNLKSKYLPLTQPVMNLRVSEAVKTEYVCNCSVVGSLNVNRCNQTTGQCECRPGYQGLHCETCKEGFYLNYTSGLCQPCDCSPHGALSIPCNSSGKCQCKVGVIGSICDRCQDGYYGFSKNGCLPCQCNNRSASCDALTGACLNCQENSKGNHCEECKEGFYQSPDATKECLRCPCSAVTSTGSCSIKSSELEPECDQCKDGYIGPNCNKCENGYYNFDSICRKCQCHGHVDPVKTPKICKPESGECINCLHNTTGFWCENCLEGYVHDLEGNCIKKEVILPTPEGSTILVSNASLTTSVPTPVINSTFTPTTLQTIFSVSTSENSTSALADVSWTQFN
B4: U5a^mAb: U5a^ECD-specific monoclonal antibody, the 17C9 1 anti-U5a antibody comprising the sequences of SEQ ID NOs. 204 and 211 (antibody)
heavy: QVQLQQPGAELVKPGASVKMSCKASGYTFTSYWITWVKQRPGQGLEWIGDIYPGSGSTTYNEKFKSKATLTVDTSSSTAYMQLSSLTSEDSAVYYCARRHYGSSSAWFAYWGQGTLVTVSAAKTTPPSVYPLAPGSAAQTNSMVTLGCLVKGYFPEPVTVTWNSGSLSSGVHTFPAVLQSDLYTLSSSVTVPSSTWPSQTVTCNVAHPASSTKVDKKIVPRDCGCKPCICTVPEVSSVFIFPPKPKDVLTITLTPKVTCVVVDISKDDPEVQFSWFVDDVEVHTAQTKPREEQINSTFRSVSELPIMHQDWLNGKEFKCRVNSAAFPAPIEKTISKTKGRPKAPQVYTIPPPKEQMAKDKVSLTCMITNFFPEDITVEWQWNGQPAENYKNTQPIMDTDGSYFVYSKLNVQKSNWEAGNTFTCSVLHEGLHNHHTEKSLSHSPGK
light: DIQMTQTTSSLSASLGDRVTISCSASQGIRNYLNWYQQKPDGTVKLLIYYTSSLHSGVPSRFSGSGSGTDYSLTISNLEPEDIATYYCQQYSKLPFTFGSGTKLEIKRADAAPTVSIFPPSSEQLTSGGASVVCFLNNFYPKDINVKWKIDGSERQNGVLNSWTDQDSKDSTYSMSSTLTLTKDEYERHNSYTCEATHKTSTSPIVKSFNRNEC

How the values were obtained:
rSARS-CoV-2/mCherry-Nluc = assay type: in vivo, K18 hACE2 transgenic mice; conditions: for virus titration in lungs (viral titers by plaque assay): 2.5 mg/kg i.p. once daily, compared to the mock groups, FIG. 8A; for body weight and survival: mouse, in vivo
[1] = test system: TSE-induced lung injury (TSE-LI); assay: chronic tobacco smoke exposure induced lung injury (TSE-LI) in wild-type mice; assay type: in vivo; conditions: for MUC5AC (M5Ac) expression (lung mRNA by qPCR, IHC) / FOXA2 mRNA (qPCR) / surfactant protein-C (SP-C) mRNA (qPCR): WT mice with TSE-LI, 2.5 mg/kg IP 5 days a week for 4 weeks; for MUC5AC (M5Ac) expression (lung mRNA by qPCR, IHC): FIG. 12A, 12D; for FOXA2 mRNA (qPCR): FIG. 12B; for surfactant protein-C (SP-C) mRNA (qPCR): FIG. 12C; for chronic TS exposure (TSE) induced lung injury (TSE-LI): WT mice, 2.5 mg/kg IP 5 days a week for 4 weeks after 16 weeks TSE
Procedure: Recombinant full-length U5a protein (U5a^FL), extracellular domain of U5a^FL (U5a^ECD) and U5a^ECD-specific monoclonal antibody (U5a^mAb, the 17C9 1 anti-U5a antibody comprising the sequences of SEQ ID NOs. 204 and 211) mitigated chronic TS exposure (TSE) induced lung injury (TSE-LI) in wild-type (WT) mice. WT mice were kept in ambient AIR or exposed to tobacco smoke (TSE) for 4 h/day 5 days a week. After 16 weeks, WT mice with TSE-LI were left untreated (None) or treated with 2.5 mg/kg of U5a^FL, U5a^ECD and U5amAb 5 days a week for 4 weeks by IP injection. Total lung RNA were analyzed for MUC5AC (M5Ac) (FIG. 12A), FOXA2 (FIG. 12B) and surfactant protein-C(SP-C) (FIG. 12C) mRNA by qPCR. Lung sections of mice treated as in FIG. 12A were subjected to IHC analysis for M5Ac (FIG. 12D). We found increased expression of U5a in AECs and ATII cells in lungs of patients with COPD and mice with TSE-LI. […] In addition, increased surfactant protein-C(SP-C) indicates improved survival of ATII cells, which is otherwise reduced due to increased TSE-induced senescence and apoptosis of ATII cells seen in mice with TSE-LI left untreated.

Molecule	virus titration in lungs (viral titers by plaque assay) (rSARS-CoV-2/mCherry-Nluc)	body weight and survival (rSARS-CoV-2/mCherry-Nluc)	MUC5AC (M5Ac) expression (lung mRNA by qPCR, IHC) [1]	FOXA2 mRNA (qPCR) [1]	surfactant protein-C (SP-C) mRNA (qPCR) [1]	chronic TS exposure (TSE) induced lung injury (TSE-LI) [1]
B1	clear trend of decreased viral titers	remarkable improvement				
B2			significantly inhibits	inducing	increased	mitigated
B3	clear trend of decreased viral titers	remarkable improvement				
B4			significantly inhibits	inducing	increased	mitigated
